The text below walks through data of patent US11230581B2, “Peptides and combination of peptides for use in immunotherapy against ovarian cancer and other cancers” (Immatics Biotechnologies GmbH, priority 2015, dated 2022).

For this assay, the target named is HLA-A*02:01 (Homo sapiens, UniProt P04439, D140Y/D185E/D98H/E176V/E277Q/G131W/G231S/I119V/I121R/I166T/I218V/L300P/L318F/N151K/N90K/P208A/P217A/Q86G/Q94H/R138H/R169H/T345S). Description: MHC binding assay (UV-ligand exchange, β2m ELISA, peptide exchange yield). Particulars: binding of HLA-class I restricted peptides to HLA-A*02:01, UV-ligand exchange. A digest of the protocol:
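Peptide-MHC complexes formed by UV-ligand exchange, cleaving a UV-sensitive placeholder peptide in favour of the test peptide. Exchange yield measured by ELISA: monomers diluted 100-fold onto streptavidin-coated plates, 1 h 37 °C, detected with 2 ug/ml HRP anti-β2m and TMB, absorbance at 450 nm.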
Turning to “170 (RLQETLSAA; listed as Homo sapiens) [compound 170]”, the “Peptide exchange (MHC class I binding score, peptide exchange yield)” value (shortened to “Peptide exchange”) is on record as ““+++” (≥50 = +++)”.

Take “171 (LLLPLQILL; listed as Homo sapiens) [compound 171]”: the “Peptide exchange” value is ““+++” (≥50 = +++)”. The entry for “172 (VLYSYTIITV; listed as Homo sapiens) [compound 172]” is ““++” (≥20% = ++)”.

For “173 (LLDSASAGLYL; listed as Homo sapiens) [compound 173]”, the “Peptide exchange” value is listed as ““+++” (≥50 = +++)”. The entry for “174 (ALAQYLITA; listed as Homo sapiens) [compound 174]” is ““+++” (≥50 = +++)”; for “175 (YLFENISQL; listed as Homo sapiens) [compound 175]” it is ““+++” (≥50 = +++)”. Take “176 (YLMEGSYNKVFL; listed as Homo sapiens) [compound 176]”: the “Peptide exchange” value is recorded as ““++” (≥20% = ++)”. Turning to “177 (YLLPEEYTSTL; listed as Homo sapiens) [compound 177]”, the “Peptide exchange” value is recorded as ““++++” (≥75% = ++++)”. The value for “178 (ALTEIAFVV; listed as Homo sapiens) [compound 178]” was ““++++” (≥75% = ++++)”; that for “179 (KVLNELYTV; listed as Homo sapiens) [compound 179]” was ““+++” (≥50 = +++)”; that for “180 (FQIDPHSGLVTV; listed as Homo sapiens) [compound 180]” was ““++” (≥20% = ++)”.

For “181 (LLWAGTAFQV; listed as Homo sapiens) [compound 181]”, the “Peptide exchange” value is reported as ““+++” (≥50 = +++)”.

Consider “182 (MLLEAPGIFL; listed as Homo sapiens) [compound 182]”, for which the “Peptide exchange” value was ““+++” (≥50 = +++)”. The entry for “183 (FGLDLVTEL; listed as Homo sapiens) [compound 183]” is ““+++” (≥50 = +++)”; for “184 (YLMDINGKMWL; listed as Homo sapiens) [compound 184]” it is ““+++” (≥50 = +++)”; for “185 (FLIDDKGYTL; listed as Homo sapiens) [compound 185]” it is ““++” (≥20% = ++)”.

“186 (TLFFQQNAL; listed as Homo sapiens) [compound 186]”: the “Peptide exchange” value is ““++” (≥20% = ++)”. The value for “187 (RQISIRGIVGV; listed as Homo sapiens) [compound 187]” was ““+++” (≥50 = +++)”. On to “188 (GLFPVTPEAV; listed as Homo sapiens) [compound 188]”, for which the “Peptide exchange” value was ““+++” (≥50 = +++)”. The entry for “189 (ALQRKLPYV; listed as Homo sapiens) [compound 189]” is ““+++” (≥50 = +++)”. The entry for “190 (FLSSLTETI; listed as Homo sapiens) [compound 190]” is ““+++” (≥50 = +++)”. Consider “191 (LLQEGQALEYV; listed as Homo sapiens) [compound 191]”, for which the “Peptide exchange” value is given as ““++” (≥20% = ++)”. Turning to “192 (KMLDGASFTL; listed as Homo sapiens) [compound 192]”, the “Peptide exchange” value is recorded as ““+++” (≥50 = +++)”. For the substance “193 (QLLDADGFLNV; listed as Homo sapiens) [compound 193]”, the “Peptide exchange” value is on record as ““+++” (≥50 = +++)”.

“194 (ALPLFVITV; listed as Homo sapiens) [compound 194]”: the “Peptide exchange” value is ““+++” (≥50 = +++)”. The value for “195 (GLFADLLPRL; listed as Homo sapiens) [compound 195]” was ““+++” (≥50 = +++)”; that for “196 (YLYSVEIKL; listed as Homo sapiens) [compound 196]” was ““++++” (≥75% = ++++)”; that for “197 (ALGPEGGRV; listed as Homo sapiens) [compound 197]” was ““++” (≥20% = ++)”. With “198 (KTINKVPTV; listed as Homo sapiens) [compound 198]”, the “Peptide exchange” value is ““+++” (≥50 = +++)”. For the substance “199 (ALQDVPLSSV; listed as Homo sapiens) [compound 199]”, the “Peptide exchange” value is on record as ““+++” (≥50 = +++)”. Turning to “200 (LLFGSVQEV; listed as Homo sapiens) [compound 200]”, the “Peptide exchange” value is given as ““+++” (≥50 = +++)”. As to “201 (RLVDYLEGI; listed as Homo sapiens) [compound 201]”, the “Peptide exchange” value is ““+++” (≥50 = +++)”.

On to “202 (ALLDQQGSRWTL; listed as Homo sapiens) [compound 202]”, for which the “Peptide exchange” value is on record as ““+++” (≥50 = +++)”.

Consider “204 (KIAENVEEV; listed as Homo sapiens) [compound 204]”, for which the “Peptide exchange” value was ““++” (≥20% = ++)”. For “205 (SLYPGTETMGL; listed as Homo sapiens) [compound 205]”, the “Peptide exchange” value is reported as ““+++” (≥50 = +++)”. The value for “206 (VLQEGKLQKLAQL; listed as Homo sapiens) [compound 206]” was ““+++” (≥50 = +++)”; that for “207 (GLTSTNAEV; listed as Homo sapiens) [compound 207]” was ““++” (≥20% = ++)”. The value for “208 (KISPVTFSV; listed as Homo sapiens) [compound 208]” was ““+++” (≥50 = +++)”; that for “209 (KLIESKHEV; listed as Homo sapiens) [compound 209]” was ““++” (≥20% = ++)”; that for “210 (LLLNAVLTV; listed as Homo sapiens) [compound 210]” was ““++” (≥20% = ++)”.

“211 (LLWPGAALL; listed as Homo sapiens) [compound 211]”: the “Peptide exchange” value is given as ““++” (≥20% = ++)”.

For “212 (ALWDQDNLSV; listed as Homo sapiens) [compound 212]”, the “Peptide exchange” value was ““++” (≥20% = ++)”.

Turning to “214 (FLLDLDPLLL; listed as Homo sapiens) [compound 214]”, the “Peptide exchange” value is recorded as ““+++” (≥50 = +++)”.

In the case of “215 (QLINHLHAV; listed as Homo sapiens) [compound 215]”, the “Peptide exchange” value was ““+++” (≥50 = +++)”. Turning to “216 (NLWEDPYYL; listed as Homo sapiens) [compound 216]”, the “Peptide exchange” value is listed as ““+++” (≥50 = +++)”.

In the case of “217 (ALIHPVSTV; listed as Homo sapiens) [compound 217]”, the “Peptide exchange” value is recorded as ““++” (≥20% = ++)”.

Turning to “218 (SALEELVNV; listed as Homo sapiens) [compound 218]”, the “Peptide exchange” value is recorded as ““++” (≥20% = ++)”. With “219 (KLSDIGITV; listed as Homo sapiens) [compound 219]”, the “Peptide exchange” value is on record as ““+++” (≥50 = +++)”. On to “220 (LLQKFVPEI; listed as Homo sapiens) [compound 220]”, for which the “Peptide exchange” value is on record as ““++” (≥20% = ++)”. The entry for “221 (ALYEEGLLL; listed as Homo sapiens) [compound 221]” is ““++” (≥20% = ++)”; for “222 (NLIENVQRL; listed as Homo sapiens) [compound 222]” it is ““++” (≥20% = ++)”. In the case of “223 (ALLENIALYL; listed as Homo sapiens) [compound 223]”, the “Peptide exchange” value is listed as ““+++” (≥50 = +++)”. The value for “224 (TLIDAQWVL; listed as Homo sapiens) [compound 224]” was ““+++” (≥50 = +++)”; that for “225 (SLLKVLPAL; listed as Homo sapiens) [compound 225]” was ““+++” (≥50 = +++)”; that for “226 (MLYVVPIYL; listed as Homo sapiens) [compound 226]” was ““++” (≥20% = ++)”.

“227 (ALMNTLLYL; listed as Homo sapiens) [compound 227]”: the “Peptide exchange” value is ““++” (≥20% = ++)”. For the substance “228 (AMQEYIAVV; listed as Homo sapiens) [compound 228]”, the “Peptide exchange” value is given as ““++” (≥20% = ++)”.

With “229 (RLPGPLGTV; listed as Homo sapiens) [compound 229]”, the “Peptide exchange” value is ““++” (≥20% = ++)”.

In the case of “230 (ILVDWLVEV; listed as Homo sapiens) [compound 230]”, the “Peptide exchange” value is on record as ““+” (≥10% = +)”. The entry for “231 (FLSPQQPPLLL; listed as Homo sapiens) [compound 231]” is ““++” (≥20% = ++)”. The entry for “232 (ALLEAQDVELYL; listed as Homo sapiens) [compound 232]” is ““++” (≥20% = ++)”.
